Source: patent US20170137513A1

Target: T1, monkey CD22 (Rhesus monkey) (UniProt H9G1X2)
T1 sequence: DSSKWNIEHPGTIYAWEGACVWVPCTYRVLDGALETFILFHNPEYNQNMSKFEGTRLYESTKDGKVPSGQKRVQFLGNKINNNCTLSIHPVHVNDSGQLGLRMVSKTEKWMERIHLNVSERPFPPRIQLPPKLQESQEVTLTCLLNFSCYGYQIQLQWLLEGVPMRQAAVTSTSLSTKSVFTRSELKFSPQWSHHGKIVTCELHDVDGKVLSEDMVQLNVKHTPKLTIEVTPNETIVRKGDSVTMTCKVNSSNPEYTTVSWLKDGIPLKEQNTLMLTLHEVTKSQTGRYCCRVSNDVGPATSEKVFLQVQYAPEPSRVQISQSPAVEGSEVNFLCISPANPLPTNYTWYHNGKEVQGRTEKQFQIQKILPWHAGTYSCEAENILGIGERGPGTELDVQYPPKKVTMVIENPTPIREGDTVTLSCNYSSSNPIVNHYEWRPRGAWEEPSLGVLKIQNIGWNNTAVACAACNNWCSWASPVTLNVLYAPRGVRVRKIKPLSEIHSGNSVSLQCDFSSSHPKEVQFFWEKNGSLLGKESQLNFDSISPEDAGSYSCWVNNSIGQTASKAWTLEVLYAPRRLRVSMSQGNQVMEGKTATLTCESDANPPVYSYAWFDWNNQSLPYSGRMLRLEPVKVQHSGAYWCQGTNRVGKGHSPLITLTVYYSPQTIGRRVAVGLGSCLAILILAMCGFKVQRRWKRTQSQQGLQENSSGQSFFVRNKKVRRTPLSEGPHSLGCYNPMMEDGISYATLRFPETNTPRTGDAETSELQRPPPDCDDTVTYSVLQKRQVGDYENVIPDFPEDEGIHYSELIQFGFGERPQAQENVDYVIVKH
Test: flow cytometry, direct immunofluorescence on Rhesus monkey PBMC

B1: RFB4 monoclonal antibody (antibody, V domains shown)
VH: EVQLVESGGGLVKPGGSLKLSCAASGFAFSIYDMSWVRQTPEKRLEWVAYISSGGGTTYYPDTVKGRFTISRDNAKNTLYLQMSSLKSEDTAMYYCARHSGYGSSYGVLFAYWGQGTLVTVSA
VL: DIQMTQTTSSLSASLGDRVTISCRASQDISNYLNWYQQKPDGTVKLLIYYTSILHSGVPSRFSGSGSGTDYSLTISNLEQEDFATYFCQQGNTLPWTFGGGTKLEIK
percent positive cells: 31.3%
